Assay results: US20210155689A1 (SHANGHAI PHARMAEXPLORER, published 2021)
Substitutions are numbered along the chain they refer to.

B1: 405B8H3 (mouse antibody purified from hybridoma) (antibody, V domains shown)
VH: QVQLQQSGAELVRPGASVTLSCKASGYTFTDYEMHWVKQTPVHGLEWIGATDPETGNSAYNQKFKGKAIMTADKSSSTAYMELRSLTSEDSAVYYCISTGWNDWGQGTSLTVSS
VL: DIKMTQSPSSMYASLGERVTITCKASQDINSYLSWFQQKPGKSPKTLIYRADRLLDGVPSRFSGSGSGQDYSLTISSLEYGDMGIYYCLQYDEFPYTFGGGTKLEIK
notes: also called mAb103-405B8H3; 405B81-13
B2: 405B8H3 mouse-human chimeric antibody (antibody, V domains shown)
VH: B1 VH
VL: B1 VL
notes: also called mAb103-405B8H3
B3: 105F1E10 (LAG-3 mouse-human chimeric antibody) (antibody, V domains shown)
VH: EVQLQQSGPELVKPGASVKMSCRASGYTFTDFKMHWMKQSHGKSLEWIGYIAPNNGGTAYNQKFRGKATLTVNESSNTAYMELRSLTSEDSAVYYCVDWDDVDYWGQGTTLTVSS
VL: B1 VL with P40S, D52N, L55V, G81E, D92V, Y96L, G100A, I106L
B4: 405B8H3 (LAG-3 mouse-human chimeric antibody) (antibody, V domains shown)
VH: B1 VH
VL: B1 VL
notes: also called mouse-human chimeric antibody 405B8H3
B5: 105F1E10 (mouse antibody purified from hybridoma) (antibody, V domains shown)
VH: B3 VH
VL: B1 VL with P40S, D52N, L55V, G81E, D92V, Y96L, G100A, I106L
notes: also called mAb009-105F1E10
B6: 105F1E10 mouse-human chimeric antibody (antibody, V domains shown)
VH: B3 VH
VL: B1 VL with P40S, D52N, L55V, G81E, D92V, Y96L, G100A, I106L
notes: also called mAb009-105F1E10
B7: 409D4E10 (mouse antibody purified from hybridoma) (antibody, V domains shown)
VH: B1 VH with Y27N, G56D, S58T, M70L, A72T, S98T, T99S
VL: B1 VL with D52N, G81E, D92N
notes: also called mAb112-409D4E10
B8: 409D4E10 (LAG-3 mouse-human chimeric antibody) (antibody, V domains shown)
VH: B1 VH with Y27N, G56D, S58T, M70L, A72T, S98T, T99S
VL: B1 VL with D52N, G81E, D92N
B9: 409B11E12 (mouse antibody purified from hybridoma) (antibody, V domains shown)
VH: B1 VH with P41T, G56S, N57Y, M70L, S98A
VL: B1 VL with I2L, D52N, G81E
notes: also called mAb104-409B11E12
B10: 409B11E12 mouse-human chimeric antibody (antibody, V domains shown)
VH: B1 VH with P41T, G56S, N57Y, M70L, S98A
VL: B1 VL with I2L, D52N, G81E
notes: also called mAb104-409B11E12
B11: 409B11E12 (LAG-3 mouse-human chimeric antibody) (antibody, V domains shown)
VH: B1 VH with P41T, G56S, N57Y, M70L, S98A
VL: B1 VL with I2L, D52N, G81E
B12: 409D4E10 mouse-human chimeric antibody (antibody, V domains shown)
VH: B1 VH with Y27N, G56D, S58T, M70L, A72T, S98T, T99S
VL: B1 VL with D52N, G81E, D92N
notes: also called mAb112-409D4E10
B13: 556F6B8 mouse-human chimeric antibody (antibody, V domains shown)
VH: RVQLKQSGPGLVQPSQSLSITCTVSGFSLIKYGVHWVRQSPGEGLEWLGVIWRGGITDYNAAFMSRLSITKDNSKSQVFFKMNSLQADDTAIYYCAKWDGPLAMDYWGQGTSVTVSS
VL: DIVMTQSHKFLSTSVGDRVSITCKASQDVGTTVAWYQQKPGQSPKLLIYWASTRHTGVPDRFTGSGSGTDFTLTISNVQSEDLADYFCQQYSSYPYTFGGGTKLEIK
notes: also called mAb123-556F6B8; 556F8B8
B14: 556F6B8 (mouse antibody purified from hybridoma) (antibody, V domains shown)
VH: B13 VH
VL: B13 VL
notes: also called mAb123-556F6B8
B15: 556F6B8 (LAG-3 mouse-human chimeric antibody) (antibody, V domains shown)
VH: B13 VH
VL: B13 VL
notes: also called 556F8B8

Key:
[1] = molecular target: T1, human LAG-3 (full length, on the cell surface) (human, UniProt P18627 23-525); assay: FACS, HEK293-hLAG-3; 0.000 nM
T1 construct: Full-length human LAG-3 expressed on cells; also called HEK293-hLAG-3; HEK293 cells transfected with LAG-3 gene
T1 sequence: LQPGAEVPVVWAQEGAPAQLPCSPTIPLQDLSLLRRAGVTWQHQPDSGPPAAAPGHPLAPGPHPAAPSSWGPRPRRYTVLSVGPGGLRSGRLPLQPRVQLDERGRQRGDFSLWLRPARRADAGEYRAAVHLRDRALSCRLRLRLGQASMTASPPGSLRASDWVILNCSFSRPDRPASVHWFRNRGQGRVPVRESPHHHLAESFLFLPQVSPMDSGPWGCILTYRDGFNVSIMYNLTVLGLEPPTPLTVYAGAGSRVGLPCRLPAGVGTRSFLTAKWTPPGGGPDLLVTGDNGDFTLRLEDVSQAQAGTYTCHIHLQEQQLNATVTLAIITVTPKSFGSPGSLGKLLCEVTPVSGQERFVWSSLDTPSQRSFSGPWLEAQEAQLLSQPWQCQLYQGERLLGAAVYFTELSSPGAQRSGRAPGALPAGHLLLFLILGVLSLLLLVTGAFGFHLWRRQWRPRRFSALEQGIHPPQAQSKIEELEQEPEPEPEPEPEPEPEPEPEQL
Text: (§1) The pIRES plasmid with the monkey-derived full-length gene was transfected into the HEK293 cell line to construct a HEK293 stable cell line containing monkey LAG-3 (herein referred to as HEK293-cLAG-3 stable cell line). The HEK293-hLAG-3 stable cell line and HEK293-cLAG-3 stable cell line were expanded in a T-75 cell culture flask to a 90% confluence. The medium was aspirated, and the cells were washed with HBSS (Hanks' Balanced Salt Solution) 1-2 times, then treated with a enzyme-free cell dissociation fluid (Versene solution: Life technology) and the cells were collected. The cells were washed with HBSS buffer for 1-2 times. After counted, the cells were diluted with HBSS to 1-2×10⁶ cells per ml, added with 1% goat serum blocking solution, incubated on ice for 20-30 minutes, and then washed with HBSS for 2 times by centrifugation. The collected cells were suspended in the FACS buffer (HBSS+1% BSA) to 2×10⁶ cells/ml, added as 100 microliters per well to a 96-well FACS reaction plate, added with 100 microliters per well of the antibody sample to be tested, incubated on ice for 1-2 hours. The plate was washed twice with the FACS buffer by centrifugation, added with 100 microliters of fluorescent (Alexa 488)-labeled secondary antibodies per well, and incubated on ice for 0.5-1.0 hours. The plate was washed 2-3 times with FACS buffer by centrifugation, added with 100 μl fixative solution (4% Paraformaldehyde) per well to suspend the cells. 5-10 minutes later, it was washed 1-2 times with FACS buffer by centrifugation. The cells were suspended with 100 microliters of FACS buffer, FACS (FACSCalibur, BD) was used for detection and the results were analyzed.

[2] = molecular target: T2, monkey LAG-3 on cells (HEK293-cLAG-3 stable cell line) (monkey, UniProt P18627 24-525 (human entry)); assay: FACS, HEK293-cLAG-3, antibody 40.000 nM
T2 construct: Full-length monkey (Chinese monkey) LAG-3 gene expressed on HEK293 cells
T2 chain: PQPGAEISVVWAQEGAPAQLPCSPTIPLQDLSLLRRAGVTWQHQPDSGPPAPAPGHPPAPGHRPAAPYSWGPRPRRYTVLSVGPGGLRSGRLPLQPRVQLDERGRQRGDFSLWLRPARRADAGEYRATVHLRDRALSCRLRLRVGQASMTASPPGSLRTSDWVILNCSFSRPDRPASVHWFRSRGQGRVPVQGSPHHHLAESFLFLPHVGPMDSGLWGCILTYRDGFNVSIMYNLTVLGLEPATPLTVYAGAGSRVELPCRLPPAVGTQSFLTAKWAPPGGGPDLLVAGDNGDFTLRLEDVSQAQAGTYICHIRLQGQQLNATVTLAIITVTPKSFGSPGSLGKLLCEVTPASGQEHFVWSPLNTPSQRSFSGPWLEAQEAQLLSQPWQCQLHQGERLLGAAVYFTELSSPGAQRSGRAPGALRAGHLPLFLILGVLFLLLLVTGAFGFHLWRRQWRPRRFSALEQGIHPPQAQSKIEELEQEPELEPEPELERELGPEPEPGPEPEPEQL
Text: as §1

[3] = molecular target: T3, human LAG-3 on cells (HEK293-hLAG-3 stable cell line) (human, UniProt P18627 23-525); assay: FACS, HEK293-hLAG-3, antibody 1.600 nM
T3 sequence: T1 sequence
Text: as §1

[4] = molecular target: T4, mouse LAG-3 protein with hFc tag (mLAG-3-hFc protein) (mouse; human, UniProt Q61790 24-442); assay: ELISA, mLAG-3-hFc coated; 0.0007 nM
T4 construct: Made in HEK293 cells; also called mouse LAG-3 extracellular domain protein; not shown: human IgG Fc fragment (hFc) of the pCpC vector
T4 sequence: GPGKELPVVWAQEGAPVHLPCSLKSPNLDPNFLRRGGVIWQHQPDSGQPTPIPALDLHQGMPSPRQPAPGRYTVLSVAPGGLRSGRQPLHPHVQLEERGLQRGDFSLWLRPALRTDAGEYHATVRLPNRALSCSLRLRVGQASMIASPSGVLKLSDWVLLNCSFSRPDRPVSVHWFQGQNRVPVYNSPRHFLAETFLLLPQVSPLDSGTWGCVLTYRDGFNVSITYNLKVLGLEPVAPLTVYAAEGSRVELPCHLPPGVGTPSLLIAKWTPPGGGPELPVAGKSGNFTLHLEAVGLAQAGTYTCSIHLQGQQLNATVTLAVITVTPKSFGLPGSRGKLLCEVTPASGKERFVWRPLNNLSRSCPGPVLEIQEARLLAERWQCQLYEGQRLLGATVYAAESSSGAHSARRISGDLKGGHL
Description: The plate was sealed with plastic film and incubated overnight at 4° C. The plate was washed 2 times with the plate washing solution (PBS+0.01% Tween20) on the next day, and added with the blocking solution (PBS+0.01% Tween20+1% BSA) and blocked at room temperature for 1-2 hours. The blocking solution was poured out, and the plate was added with 50-100 μl of the antibody sample to be tested to each well, incubated at 37° C. for 1-2 hours, and washed 2-3 times with a plate washing solution (PBS+0.01% Tween20). HRP (horseradish peroxidase) labeled secondary antibody was added, and the plate was incubated at 37° C. for 1-2 hours, and washed 2-3 times with a plate washing solution (PBS+0.01% Tween20). 100 μl of TMB substrate was added to each well. After incubated at room temperature for 15-30 minutes, the plate was added with 100 μl of stop solution (1.0N HCl) to each well.

Binder | Mean fluorescence intensity [1] [MFI] | Mean fluorescence intensity [2] | Mean fluorescence intensity [3] | OD450 [4] [OD450]
B1 | 3.7 | – | – | –
B2 | – | 90.8 | 62.3 | –
B3 | – | – | – | 0.08
B4 | – | – | – | 0.08
B5 | 3.7 | – | – | –
B6 | – | 64.6 | 34.7 | –
B7 | 2.8 | – | – | –
B8 | – | – | – | 0.13
B9 | 2.5 | – | – | –
B10 | – | 108 | 69 | –
B11 | – | – | – | 0.08
B12 | – | 93.4 | 56.8 | –
B13 | – | 74.4 | 39.1 | –
B14 | 2.8 | – | – | –
B15 | – | – | – | 0.08
